From article PMC8446450, “Autosomal Recessive Cutis Laxa 1C Mutations Disrupt the Structure and Interactions of Latent TGFβ Binding Protein-4” (Frontiers in Genetics, 2021)
Read-outs that look alike come from different tables or passages of the source.

B1: Latent TGFβ binding protein-4 (LTBP4S) C-terminal region, wild type (domain or fragment, human, UniProt Q8N2S1-2 1114-1557, looked up)
chain: RECYFDTAAPDACDNILARNVTWQECCCTVGEGWGSGCRIQQCPGTETAEYQSLCPHGRGYLAPSGDLSLRRDVDECQLFRDQVCKSGVCVNTAPGYSCYCSNGYYYHTQRLECIDNDECADEEPACEGGRCVNTVGSYHCTCEPPLVLDGSQRRCVSNESQSLDDNLGVCWQEVGADLVCSHPRLDRQATYTECCCLYGEAWGMDCALCPAQDSDDFEALCNVLRPPAYSPPRPGGFGLPYEYGPDLGPPYQGLPYGPELYPPPALPYDPYPPPPGPFARREAPYGAPRFDMPDFEDDGGPYGESEAPAPPGPGTRWPYRSRDTRRSFPEPEEPPEGGSYAGSLAEPYEELEAEECGILDGCTNGRCVRVPEGFTCRCFDGYRLDMTRMACVDINECDEAEAASPLCVNARCLNTDGSFRCICRPGFAPTHQPHHCAPARPRA
notes: numbers count on: LTBP4S; N-glycosylated (PNGase-F shift); also called CWT; C WT
B2: Latent TGFβ binding protein-4 (LTBP4S) C-terminal region, ARCL1C mutant C1286S (domain or fragment)
chain: RECYFDTAAPDACDNILARNVTWQECCCTVGEGWGSGCRIQQCPGTETAEYQSLCPHGRGYLAPSGDLSLRRDVDECQLFRDQVCKSGVCVNTAPGYSCYCSNGYYYHTQRLECIDNDECADEEPACEGGRCVNTVGSYHCTSEPPLVLDGSQRRCVSNESQSLDDNLGVCWQEVGADLVCSHPRLDRQATYTECCCLYGEAWGMDCALCPAQDSDDFEALCNVLRPPAYSPPRPGGFGLPYEYGPDLGPPYQGLPYGPELYPPPALPYDPYPPPPGPFARREAPYGAPRFDMPDFEDDGGPYGESEAPAPPGPGTRWPYRSRDTRRSFPEPEEPPEGGSYAGSLAEPYEELEAEECGILDGCTNGRCVRVPEGFTCRCFDGYRLDMTRMACVDINECDEAEAASPLCVNARCLNTDGSFRCICRPGFAPTHQPHHCAPARPRA
B3: Latent TGFβ binding protein-4 (LTBP4S) N-terminal region, wild type (domain or fragment, human, UniProt Q8N2S1-2 29-394, looked up)
chain: GERLRVRFTPVVCGLRCVHGPTGSRCTPTCAPRNATSVDSGAPGGAAPGGPGFRAFLCPLICHNGGVCVKPDRCLCPPDFAGKFCQLHSSGARPPAPAVPGLTRSVYTMPLANHRDDEHGVASMVSVHVEHPQEASVVVHQVERVSGPWEEADAEAVARAEAAARAEAAAPYTVLAQSAPREDGYSDASGFGYCFRELRGGECASPLPGLRTQEVCCRGAGLAWGVHDCQLCSERLGNSERVSAPDGPCPTGFERVNGSCEDVDECATGGRCQHGECANTRGGYTCVCPDGFLLDSSRSSCISQHVISEAKGPCFRVLRDGGCSLPILRNITKQICCCSRVGKAWGRGCQLCPPFGSEGFREICPA
notes: numbers count on: LTBP4S; N-glycosylated (PNGase-F shift); Biotinylated when immobilised on streptavidin biosensors in the fibronectin BLI experiment (general BLI methods); also called NWT; LTBP4 N-terminal region

Key:
Fibulin-4, full length = molecular target: T1, Fibulin-4, full length (UniProt O95967 24-443, biotin (biotinylated ligand on streptavidin biosensors, position not stated)); assay: BLI; OctetRED96, immobilised full-length fibulin-4, NWT or C274G 1000-62.5 nM, 10 mM HEPES, 150 mM NaCl, pH 7.4, 0.005% Tween-20, 25°C; steady state analysis
T1 construct: full-length fibulin-4; source: expressed and purified as previously described (Choudhury et al., 2009)
T1 sequence (looked up): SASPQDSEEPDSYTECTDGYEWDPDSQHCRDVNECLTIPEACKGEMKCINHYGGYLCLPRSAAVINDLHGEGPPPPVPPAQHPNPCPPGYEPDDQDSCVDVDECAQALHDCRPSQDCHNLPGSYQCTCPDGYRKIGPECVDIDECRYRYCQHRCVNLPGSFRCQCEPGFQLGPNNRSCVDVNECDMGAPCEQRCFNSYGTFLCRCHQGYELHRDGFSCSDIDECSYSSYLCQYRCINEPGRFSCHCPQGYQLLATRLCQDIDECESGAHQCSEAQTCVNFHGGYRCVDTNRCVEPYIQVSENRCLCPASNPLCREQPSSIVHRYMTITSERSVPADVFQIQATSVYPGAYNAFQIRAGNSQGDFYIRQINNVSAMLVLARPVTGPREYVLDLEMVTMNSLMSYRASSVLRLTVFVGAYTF

[1] = molecular target: Latent TGFβ binding protein-4 (LTBP4S) C-terminal region, ARCL1C mutant C1286S (human); assay: SPR; ProteOn, LTBP4 C-terminal constructs amine-coupled on GLC chip, fibrillin-1 PF3 injected 100-3.1 nM, 10 mM HEPES, 150 mM NaCl, pH 7.4, 0.005% Tween-20, 25°C; steady state (equilibrium) analysis
Fibrillin-1 PF3 fragment = molecular target: T2, Fibrillin-1 PF3 fragment (UniProt P35555 45-722); assay: as above; conditions: both partners purified
T2 construct: signal peptide in the construct; fibrillin-1 PF3 fragment, residues 1-722 (Rock et al., 2004); also called N-terminal region of fibrillin-1; source: purified

[2] = molecular target: Tropoelastin (SHELdelta26A); assay: BLI; OctetRED96, biotinylated tropoelastin on streptavidin biosensors, LTBP4 C-terminal constructs 375-23.4 nM, 10 mM HEPES, 150 mM NaCl, pH 7.4, 0.005% Tween-20, 25°C; steady state analysis
[3] = molecular target: T3, Tropoelastin (SHELdelta26A) (biotin where immobilised on streptavidin biosensors (position not given)); assay: BLI
T3 chain: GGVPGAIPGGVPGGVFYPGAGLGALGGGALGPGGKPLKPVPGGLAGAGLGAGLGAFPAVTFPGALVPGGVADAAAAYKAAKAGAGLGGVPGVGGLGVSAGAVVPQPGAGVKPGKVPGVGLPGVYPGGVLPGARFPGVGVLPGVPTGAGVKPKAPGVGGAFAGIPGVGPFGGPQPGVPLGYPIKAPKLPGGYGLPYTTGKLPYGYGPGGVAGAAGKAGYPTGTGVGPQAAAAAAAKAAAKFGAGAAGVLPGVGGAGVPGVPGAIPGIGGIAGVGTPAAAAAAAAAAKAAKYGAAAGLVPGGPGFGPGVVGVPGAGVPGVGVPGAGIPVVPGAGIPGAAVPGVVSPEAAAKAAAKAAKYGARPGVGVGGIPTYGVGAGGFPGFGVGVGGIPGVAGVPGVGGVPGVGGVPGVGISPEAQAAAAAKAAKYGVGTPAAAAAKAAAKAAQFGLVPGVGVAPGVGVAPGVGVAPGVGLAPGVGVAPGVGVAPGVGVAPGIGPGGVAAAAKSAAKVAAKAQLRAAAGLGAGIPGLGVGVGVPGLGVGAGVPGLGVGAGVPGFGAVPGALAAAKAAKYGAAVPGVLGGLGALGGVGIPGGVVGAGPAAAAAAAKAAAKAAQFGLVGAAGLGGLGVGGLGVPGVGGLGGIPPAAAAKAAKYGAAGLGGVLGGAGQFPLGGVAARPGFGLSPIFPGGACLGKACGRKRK

T2 sequence (P35555 45-722): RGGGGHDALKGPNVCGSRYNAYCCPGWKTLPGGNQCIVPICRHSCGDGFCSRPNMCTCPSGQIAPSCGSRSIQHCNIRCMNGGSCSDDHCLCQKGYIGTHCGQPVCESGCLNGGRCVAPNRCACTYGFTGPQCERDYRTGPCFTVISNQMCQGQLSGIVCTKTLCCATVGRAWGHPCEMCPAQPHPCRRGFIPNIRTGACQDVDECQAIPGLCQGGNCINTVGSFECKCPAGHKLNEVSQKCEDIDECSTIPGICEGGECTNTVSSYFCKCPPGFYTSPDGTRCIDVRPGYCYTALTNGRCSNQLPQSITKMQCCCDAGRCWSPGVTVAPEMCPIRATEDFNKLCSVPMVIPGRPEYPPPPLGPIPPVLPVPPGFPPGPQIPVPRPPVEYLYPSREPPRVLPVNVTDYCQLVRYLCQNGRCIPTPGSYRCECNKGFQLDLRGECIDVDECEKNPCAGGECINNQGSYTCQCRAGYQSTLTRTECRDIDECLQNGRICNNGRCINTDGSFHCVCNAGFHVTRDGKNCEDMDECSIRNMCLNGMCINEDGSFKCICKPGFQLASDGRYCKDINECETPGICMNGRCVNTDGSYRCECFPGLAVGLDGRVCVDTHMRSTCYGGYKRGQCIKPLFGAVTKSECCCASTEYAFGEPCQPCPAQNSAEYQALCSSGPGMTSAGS

Row | Molecule | Kd [2] [nM] | Kd [3] [nM] | further results
1 | Latent TGFβ binding protein-4 (LTBP4S) N-terminal region, ARCL1C mutant C274G (domain or fragment) | – | – | Kd (Fibulin-4, full length): 177 nM
2 | Fibrillin-1 PF3 fragment (from UniProt P35555 45-722) (domain or fragment) | – | – | Kd [1]: 12.2 nM
3 | B1 | 57 | 6.4 | Kd (Fibrillin-1 PF3 fragment): 15.8 nM
4 | B2 | 151 | 65 | –
5 | B3 | – | – | Kd (Fibulin-4, full length; both partners purified): 1290 nM
